In patent publication US20260184748A1 (University of Pennsylvania, published 2026):
Where no end group is shown, it is not given here.

Columns and labels:
Assay in all cases: cell-based or functional assay
[1] = biological target: MRGPRX1 (UniProt Q96LB2 1-322)
[2] = biological target: T1, NPY2R (UniProt P49146 1-381)
T1 sequence (looked up): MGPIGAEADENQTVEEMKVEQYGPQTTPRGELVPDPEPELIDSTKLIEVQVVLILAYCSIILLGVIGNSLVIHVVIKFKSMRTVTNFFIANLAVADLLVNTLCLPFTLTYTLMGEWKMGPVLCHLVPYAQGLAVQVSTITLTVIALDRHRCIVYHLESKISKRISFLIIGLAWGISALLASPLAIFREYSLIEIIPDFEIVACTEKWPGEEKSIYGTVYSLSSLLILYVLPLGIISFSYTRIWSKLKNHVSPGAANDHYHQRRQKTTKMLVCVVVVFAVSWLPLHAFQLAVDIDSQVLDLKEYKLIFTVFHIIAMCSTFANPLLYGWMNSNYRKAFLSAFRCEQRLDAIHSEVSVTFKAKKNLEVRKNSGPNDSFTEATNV

[3] = biological target: OXER1 (UniProt Q8TDS5 1-384, limits assumed)
OXER1, sequence (Q8TDS5 whole entry): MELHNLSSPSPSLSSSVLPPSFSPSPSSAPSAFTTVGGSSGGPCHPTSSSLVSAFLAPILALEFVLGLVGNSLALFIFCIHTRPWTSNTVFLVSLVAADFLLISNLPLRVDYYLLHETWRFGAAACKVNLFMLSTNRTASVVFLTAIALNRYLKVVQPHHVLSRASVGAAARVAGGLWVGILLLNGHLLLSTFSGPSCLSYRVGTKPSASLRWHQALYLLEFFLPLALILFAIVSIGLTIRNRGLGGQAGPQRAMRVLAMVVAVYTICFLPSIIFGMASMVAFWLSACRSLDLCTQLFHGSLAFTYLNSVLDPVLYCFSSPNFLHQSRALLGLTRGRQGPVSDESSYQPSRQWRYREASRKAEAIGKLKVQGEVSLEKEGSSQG

[4] = biological target: T2, AVPR1B (UniProt P47901 1-424)
T2 sequence (looked up): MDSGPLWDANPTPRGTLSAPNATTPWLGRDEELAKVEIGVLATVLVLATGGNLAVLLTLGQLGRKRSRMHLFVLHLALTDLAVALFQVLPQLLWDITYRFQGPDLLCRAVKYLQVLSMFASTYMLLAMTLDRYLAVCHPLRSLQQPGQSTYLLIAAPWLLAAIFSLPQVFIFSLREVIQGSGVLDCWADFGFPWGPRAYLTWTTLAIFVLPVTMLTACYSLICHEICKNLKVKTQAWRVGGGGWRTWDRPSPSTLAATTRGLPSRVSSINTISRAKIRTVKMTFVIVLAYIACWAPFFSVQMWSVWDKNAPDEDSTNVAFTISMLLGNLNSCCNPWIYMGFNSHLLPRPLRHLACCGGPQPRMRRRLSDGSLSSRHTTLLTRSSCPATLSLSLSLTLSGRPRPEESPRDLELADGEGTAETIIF

[5] = biological target: T3, C3AR1 (UniProt Q16581 1-482)
T3 sequence (looked up): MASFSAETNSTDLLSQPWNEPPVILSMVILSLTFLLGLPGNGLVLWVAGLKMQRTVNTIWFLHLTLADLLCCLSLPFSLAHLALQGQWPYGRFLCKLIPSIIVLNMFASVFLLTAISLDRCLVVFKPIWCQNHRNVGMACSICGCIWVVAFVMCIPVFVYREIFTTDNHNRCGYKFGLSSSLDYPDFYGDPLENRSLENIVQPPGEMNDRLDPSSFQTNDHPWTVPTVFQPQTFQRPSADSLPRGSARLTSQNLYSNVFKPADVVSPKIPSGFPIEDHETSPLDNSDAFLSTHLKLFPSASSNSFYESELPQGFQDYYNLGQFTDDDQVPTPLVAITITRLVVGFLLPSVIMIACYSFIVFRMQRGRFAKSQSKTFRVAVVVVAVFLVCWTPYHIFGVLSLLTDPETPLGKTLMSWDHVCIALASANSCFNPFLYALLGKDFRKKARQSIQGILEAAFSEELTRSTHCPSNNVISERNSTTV

[6] = biological target: T4, CALCR-RAMP3 (UniProt P30988 25-474; O60896 24-148, limits assumed)
T4 sequence (looked up) 1: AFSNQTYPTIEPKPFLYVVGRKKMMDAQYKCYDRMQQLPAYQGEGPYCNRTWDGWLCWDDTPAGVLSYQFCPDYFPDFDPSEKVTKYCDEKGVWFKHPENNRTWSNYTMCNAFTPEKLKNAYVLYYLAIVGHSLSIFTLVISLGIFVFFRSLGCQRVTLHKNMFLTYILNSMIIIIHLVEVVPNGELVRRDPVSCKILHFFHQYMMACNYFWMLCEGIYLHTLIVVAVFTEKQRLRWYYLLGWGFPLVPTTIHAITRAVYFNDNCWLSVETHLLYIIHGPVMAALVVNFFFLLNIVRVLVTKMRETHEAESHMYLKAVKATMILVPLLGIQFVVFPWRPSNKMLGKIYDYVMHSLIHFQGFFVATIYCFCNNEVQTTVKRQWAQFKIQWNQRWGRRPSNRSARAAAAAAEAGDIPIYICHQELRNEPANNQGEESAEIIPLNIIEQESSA
T4 sequence (looked up) 2: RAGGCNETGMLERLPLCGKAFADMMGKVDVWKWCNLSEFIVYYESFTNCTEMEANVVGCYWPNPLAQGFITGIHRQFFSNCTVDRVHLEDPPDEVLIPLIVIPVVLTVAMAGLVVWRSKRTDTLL

[7] = biological target: T5, CHRM2 (UniProt P08172 1-466)
T5 sequence (looked up): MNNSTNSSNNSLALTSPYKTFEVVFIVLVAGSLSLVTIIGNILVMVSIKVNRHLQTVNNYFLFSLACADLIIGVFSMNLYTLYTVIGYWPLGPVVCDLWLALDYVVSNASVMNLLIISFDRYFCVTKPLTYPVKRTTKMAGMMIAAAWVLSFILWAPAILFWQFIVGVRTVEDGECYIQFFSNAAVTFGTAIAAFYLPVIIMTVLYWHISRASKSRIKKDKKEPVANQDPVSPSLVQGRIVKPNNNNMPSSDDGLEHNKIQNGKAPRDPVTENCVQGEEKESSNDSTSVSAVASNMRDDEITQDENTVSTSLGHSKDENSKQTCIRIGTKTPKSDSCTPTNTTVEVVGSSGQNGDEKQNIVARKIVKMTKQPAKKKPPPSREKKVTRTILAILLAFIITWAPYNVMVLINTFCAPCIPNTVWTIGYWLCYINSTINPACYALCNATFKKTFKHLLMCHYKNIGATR

[8] = biological target: DRD5 (UniProt P21918 1-477)
DRD5, sequence (P21918 whole entry): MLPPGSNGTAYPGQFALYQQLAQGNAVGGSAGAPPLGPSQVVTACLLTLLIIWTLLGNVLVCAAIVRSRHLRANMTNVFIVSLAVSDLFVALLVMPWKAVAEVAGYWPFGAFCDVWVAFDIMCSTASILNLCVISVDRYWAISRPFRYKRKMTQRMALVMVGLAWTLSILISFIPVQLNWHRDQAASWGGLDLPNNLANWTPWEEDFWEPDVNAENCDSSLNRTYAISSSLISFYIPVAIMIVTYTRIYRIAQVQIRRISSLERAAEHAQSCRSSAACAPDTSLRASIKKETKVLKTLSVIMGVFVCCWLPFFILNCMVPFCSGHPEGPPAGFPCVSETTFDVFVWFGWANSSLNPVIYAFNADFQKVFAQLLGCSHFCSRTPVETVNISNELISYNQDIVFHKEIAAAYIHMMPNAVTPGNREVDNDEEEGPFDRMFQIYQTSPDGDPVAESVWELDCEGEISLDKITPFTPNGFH

[9] = biological target: GPR92 (UniProt Q9H1C0 1-372)
GPR92, sequence (Q9H1C0 whole entry): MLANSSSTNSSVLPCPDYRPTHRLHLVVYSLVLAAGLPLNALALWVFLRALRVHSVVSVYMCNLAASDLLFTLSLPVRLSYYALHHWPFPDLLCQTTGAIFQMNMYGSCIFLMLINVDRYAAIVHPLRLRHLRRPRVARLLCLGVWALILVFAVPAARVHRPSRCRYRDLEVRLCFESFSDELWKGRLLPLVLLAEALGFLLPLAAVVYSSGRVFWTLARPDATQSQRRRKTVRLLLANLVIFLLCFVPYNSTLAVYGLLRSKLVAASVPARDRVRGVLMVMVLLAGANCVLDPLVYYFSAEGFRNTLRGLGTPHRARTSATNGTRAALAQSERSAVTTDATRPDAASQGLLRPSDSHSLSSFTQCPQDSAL

MRGPRX1, sequence (Q96LB2 whole entry): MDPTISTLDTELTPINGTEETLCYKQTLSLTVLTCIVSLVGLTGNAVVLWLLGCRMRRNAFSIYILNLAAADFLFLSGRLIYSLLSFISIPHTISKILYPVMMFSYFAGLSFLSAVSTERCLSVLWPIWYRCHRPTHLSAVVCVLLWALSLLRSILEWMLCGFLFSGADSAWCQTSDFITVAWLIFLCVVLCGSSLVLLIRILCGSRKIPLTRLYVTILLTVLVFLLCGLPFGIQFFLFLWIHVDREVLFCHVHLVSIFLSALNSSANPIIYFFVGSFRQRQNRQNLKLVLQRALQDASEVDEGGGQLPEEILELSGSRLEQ

B1: octadecaneuropeptide (ODN) (peptide)
peptide: QATVGDVNTDRPGLLDLK
modifications: also: synthesised on Rink amide resin, C-terminal amide not given here outright
For B1, the “% Activity, arrestin, antagonist mode, 2.5 uM” value (“% Activity, arrestin” for short) [1] was 3.8%, the “% Activity, arrestin” value [2] was -10.3% and the “% Activity, arrestin” value [3] was -39.7%. The “% Activity, arrestin” value [4] was -25.7%, the “% Activity, arrestin” value [5] was 4% and the “% Activity, arrestin” value [6] was -0.1%. The “% Activity, arrestin” value [7] was 3.3%, the “% Activity, arrestin” value [8] was 4.2% and the “% Activity, arrestin” value [9] was 10.6%.
